B1: CPEB3 Ribozyme (parent)
chain: GGGGGCCACAGCAGAAGCGUUCACGUCGCGGCCCCUGUCAGAUUCUGGUGAAUCUGCGAAUUCUGCUGU

Variants of: B1
Assay: self-cleavage, relative activity (ratio to wild type); higher = more cleavage; co-transcriptional

| Variant | self-cleavage |
| --- | --- |
| G30A G65U | 0.436 |
| G28C C39A | 0.156 |
| G28C C39U | 0.207 |
| G28A G41A | 0.178 |
| G28A G41U | 0.148 |
| C29A G41A | 0.215 |
| C29A G41U | 0.296 |
| C29G A52C | 0.467 |
| C29G G37C | 0.169 |
| C29G G37A | 0.178 |
| G28C U64C | 0.194 |
| G28U U36A | 0.168 |
| G28U U36G | 0.106 |
| G30A C54G | 0.333 |
| C29U G68C | 0.571 |
| C29A C57U | 0.247 |
| G28A U36A | 0.154 |
| C29G U44G | 0.361 |
| G28U A59C | 0.251 |
| G30A C35U | 0.533 |
| G30A C35G | 0.186 |

| Variant | self-cleavage |
| --- | --- |
| C27U U49C | 0.301 |
| C27U U49A | 0.442 |
| G28A A59G | 0.17 |
| G28A A59C | 0.185 |
| G28A C54A | 0.175 |
| G30A U44G | 0.579 |
| C27U U67G | 0.4 |
| C29G U61C | 0.221 |
| C29G U61G | 0.348 |
| G28C U69C | 0.276 |
| G28C U69G | 0.301 |
| G28U A60U | 0.138 |
| G28A A40C | 0.15 |
| C29U A59U | 0.232 |
| C29U C66G | 0.206 |
| G28U C45G | 0.162 |
| C29U U36G | 0.147 |
| C29U U36C | 0.244 |
| G28C G68C | 0.147 |
| G28C U46G | 0.118 |
| G28C U46C | 0.131 |

| Variant | self-cleavage |
| --- | --- |
| G28C U46A | 0.173 |
| C29G G50C | 0.457 |
| G28A C66U | 0.165 |
| G28A C66A | 0.189 |
| C29A C39A | 0.327 |
| C29A U36G | 0.179 |
| C29G C34A | 0.227 |
| C29G C34U | 0.495 |
| C29A A60G | 0.334 |
| C29A A60C | 0.307 |
| C27U G68C | 0.385 |
| C27U U53A | 0.25 |
| C27U U53G | 0.18 |
| G30A C39A | 0.362 |
| G28U U69A | 0.183 |
| G28U U69C | 0.235 |
| G28A A52C | 0.182 |
| G28A A52U | 0.276 |
| G30A C57A | 0.258 |
| G30A C57G | 0.247 |
| C29A C63U | 0.465 |

| Variant | self-cleavage |
| --- | --- |
| C29U A51U | 0.432 |
| C29U A51C | 0.356 |
| G28U A42C | 0.153 |
| G28U G58U | 0.182 |
| C27U U62G | 0.276 |
| C27U U62C | 0.189 |
| G28A U49A | 0.181 |
| G28U A40U | 0.213 |
| C29U G56C | 0.26 |
| C27U G37A | 0.187 |
| G28C G56C | 0.192 |
| G28C G56A | 0.181 |
| G28C U44G | 0.191 |
| G28A U55A | 0.169 |
| G28A U55G | 0.167 |
| C29G U49C | 0.544 |
| C29A U61C | 0.374 |
| C29A U61G | 0.613 |
| C27U U55G | 0.188 |
| G28C G30U | 0.2 |

Source: the RNAGym collection of RNA variant scans (doi:10.7554/elife.80360)
